Source: patent US20240101668A1 (WUGEN, published 2024)

Experiments:
[1] = molecular target: T1, huCD33-G69-Fc recombinant protein (human, UniProt P20138 18-259); test: BLI;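 also: biolayer interferometry: scFvs captured from periplasmic extracts on anti-V5-loaded streptavidin biosensors, antigen association for 2 min, buffer dissociation for 5 min, 1:1 Langmuir fit giving off-rate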
T1 construct: extracellular domain; also called CD33 R69G
Procedure: Discovered scFvs were analyzed for binding to huCD33-R69-His or huCD33-G69-Fc recombinant proteins (for anti-CD33 scFvs; for CLL-1 scFvs, huCLL1-K244-Avi-Tev-His or huCLL1-Q244-Avi-Tev-His were used; for FLT3, huFLT3-T227-His or huFLT3-M227-Fc were used) using BLI on a ForteBio Octet HTX instrument. Streptavidin-coated biosensors were loaded with biotinylated anti-V5 tag monoclonal antibody for 5 min and were then quenched and blocked with 20 μM amine-PEG2-Biotin for 5 min. scFvs were captured on biosensors from scFv clone periplasmic extracts. huCD33 (or huCLL-1, or huFLT3) proteins were then associated with the captured scFvs for 2 minutes, followed by dissociation with buffer (1×HBST [10 mM HEPES pH 7.4, 150 mM NaCl, 0.05% Tween-20], 1 g/L BSA) for 5 minutes. […] Data was fitted with 1:1 Langmuir equation and off-rate values were reported.

[2] = molecular target: T2, huCD33-R69 stably expressed on Jurkat cells (human, UniProt P20138 18-364); test: FACS on cells;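 also: fixed Jurkat lines probed with myc-tagged scFv periplasmic extracts, anti-myc PE flow cytometry, PE MFI fold binned − <2, + 2–10, ++ 10–30, +++ >30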
T2 construct: whole, on cells; >200,000 receptors per cell; also called CD33 WT; CD33^ARG69
T2 sequence (P20138 18-364): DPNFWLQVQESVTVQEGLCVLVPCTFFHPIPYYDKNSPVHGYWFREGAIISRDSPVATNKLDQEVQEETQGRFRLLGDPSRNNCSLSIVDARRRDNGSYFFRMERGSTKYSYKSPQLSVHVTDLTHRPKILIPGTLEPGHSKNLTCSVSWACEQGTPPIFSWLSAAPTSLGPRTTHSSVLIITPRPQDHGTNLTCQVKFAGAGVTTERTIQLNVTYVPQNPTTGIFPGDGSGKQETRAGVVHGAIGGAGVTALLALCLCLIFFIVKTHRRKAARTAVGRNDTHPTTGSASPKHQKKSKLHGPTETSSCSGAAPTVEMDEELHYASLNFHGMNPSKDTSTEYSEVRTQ
Procedure: (§1) Jurkat cells were engineered to stably express either the huCD33-R69 or huCD33-G69 variant at >200,000 receptors per cell. Parental, huCD33-R69, and huCD33-G69 Jurkat cell lines were stained with differing levels of CellTrace Violet Cell Proliferation Kit (ThermoFisher, cat. #C34557) to barcode each cell line. Barcoded Jurkat cell lines were fixed with paraformaldehyde and incubated with myc-labeled scFv periplasmic extracts and a secondary anti-myc PE-conjugated monoclonal antibody. Appropriate positive and negative controls were used. Stained cells were analyzed by flow cytometry (CytoFLEX, Beckman Coulter, Inc.) and binding was assessed by change in PE mean fluorescence intensity (MFI) of the barcoded cell populations.
(§2) Data is disclosed below in Table 16c, reporting FACS fold change over parental as (−), indicating <2 fold; (+), indicating 2-10 fold; (++), indicating 10-30 fold; and (+++), indicating >30 fold.

[3] = molecular target: T3, huCD33-G69 stably expressed on Jurkat cells (human, UniProt P20138 18-364); test: FACS on cells;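 also: fixed Jurkat lines probed with myc-tagged scFv periplasmic extracts, anti-myc PE flow cytometry, PE MFI fold binned − <2, + 2–10, ++ 10–30, +++ >30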
T3 construct: whole, on cells; >200,000 receptors per cell; also called CD33 Mutant; CD33 R69G
T3 sequence (P20138 18-364 R69G): as the sequence (P20138 18-364) above, with R52G counted along it
Procedure: as §1, §2

T1 sequence (P20138 18-259 R69G): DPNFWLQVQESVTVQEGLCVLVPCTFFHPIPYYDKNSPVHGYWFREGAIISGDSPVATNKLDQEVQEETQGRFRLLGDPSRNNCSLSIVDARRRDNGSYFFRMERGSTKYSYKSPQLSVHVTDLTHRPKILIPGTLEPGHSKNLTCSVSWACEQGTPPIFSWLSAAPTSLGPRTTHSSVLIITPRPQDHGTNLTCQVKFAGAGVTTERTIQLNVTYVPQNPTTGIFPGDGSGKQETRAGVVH

| Binder | binding result [1] | FACS geometric mean fold change over Jurkat parental [2] | FACS geometric mean fold change over Jurkat parental [3] |
| --- | --- | --- | --- |
| Polypeptide No. 93 (scFv, V domains shown, scFv) VH: QVQLVQSGAEVKKPGASVKVSCKASGYSFTNYDISWVRQAPGQGLEWMGWVNPNSGNTGYAQKFQGRVTMTRDTSTSTVYMELSSLRSEDTAVYYCAKDAPYYYDSSGYYGVFDYWGQGTLVTVSS VL: DIVMTQSPLSLPVTPGEPASISCRSSQSLLHSNGYNYLDWYLQKPGQSPQLLIYAASSLQSGVPDRFSGSGSGTDFTLKISRVEAEDVGVYYCMQALQTPLTFGQGTRLEIKR | binds | 2 to 10 fold | 2 to 10 fold |
| Polypeptide No. 97 (scFv, V domains shown, scFv) VH: EVQLLESGGGLVQPGGSLRLSCAASGFTFRSYWMTWVRQAPGKGLEWVSVISGSGDNTYYADSVKGRFTISRDNSKNTLYLQMNSLRAEDTAVYYCARETTWGMDVWGQGTTVTVSS VL: DIQMTQSPSSLSASVGDRVTITCRASQSISSYLNWYQQKPGKAPKLLIYDASNLETGVPSRFSGSGSGTDFTLTISSLQPEDFATYYCQQSSIIPLTFGGGTKVEIKR | binds | 10 to 30 fold | 2 to 10 fold |
| Polypeptide No. 92 (scFv, V domains shown, scFv) VH: QVQLVQSGAEVKKPGASVKVSCKASGYTFTNHYMHWVRQAPGQGLEWMGIINPSGGSTSYAQKFQGRVTMTRDTSTSTVYMELSSLRSEDTAVYYCASAEVGATHYGMDVWGQGTTVTVSS VL: DIVMTQSPLSLPVTPGEPASISCRSSQSLLHSNGYNYLDWYLQKPGQSPQLLIYAASSLQSGVPDRFSGSGSGTDFTLKISRVEAEDVGVYYCMQALHPPTFGQGTKVEIKR | binds | 2 to 10 fold | 2 to 10 fold |
| Polypeptide No. 98 (scFv, V domains shown, scFv) VH: QVQLVQSGAEVKKPGASVKVSCKASGGSFSSSAINWVRQAPGQGLEWMGWMNPNSGNTGYAQKFQGRVTMTRDTSTSTVYMELSSLRSEDTAVYYCARDRGIAVAGASPYYYYGMDVWGQGTTVTVSS VL: DIQMTQSPSSLSASVGDRVTITCRASQDIGSYLAWYQQKPGKAPKLLIYAASSLQSGVPSRFSGSGSGTDFTLTISSLQPEDFATYYCHQSYSTPFTFGQGTKLEIKR | binds | 10 to 30 fold | > 30 fold |
| Polypeptide No. 95 (scFv, V domains shown, scFv) VH: QVQLVQSGAEVKKPGSSVKVSCKASGYSFTTYDINWVRQAPGQGLEWMGRMNPNSGNTGYAQKFQGRVTITADESTSTAYMELSSLRSEDTAVYYCARVVHGMDVWGQGTTVTVSS VL: not shown | binds | 2 to 10 fold | 2 to 10 fold |

Other lines, results leading:

| binding result [1] | FACS geometric mean fold change over Jurkat parental [2] | FACS geometric mean fold change over Jurkat parental [3] | Binder |
| --- | --- | --- | --- |
| binds | 2 to 10 fold | 10 to 30 fold | Polypeptide No. 94 (scFv, V domains shown, scFv) VH: QVQLVQSGAEVKKPGASVKVSCKASGYTFTTYDINWVRQAPGQGLEWMGWISGYNGNTGYAQKFQGRVTMTRDTSTSTVYMELSSLRSEDTAVYYCAKDMGYGDYPDAFDIWGQGTMVTVSS VL: DIVMTQSPLSLPVTPGEPASISCRSSQSLLHSNGYNYLDWYLQKPGQSPQLLIYAASTLQSGVPDRFSGSGSGTDFTLKISRVEAEDVGVYYCMQALQIPITFGQGTKVEIKR |
| binds | > 30 fold | > 30 fold | Polypeptide No. 96 (scFv, V domains shown, scFv) VH: QVQLVQSGAEVKKPGASVKVSCKASGGTFSSYAISWVRQAPGQGLEWMGWMNPSSANTGYAQKFQGRVTMTRDTSTSTVYMELSSLRSEDTAVYYCAKDEMELLTAFDIWGQGTMVTVSS VL: DIQMTQSPSSLSASVGDRVTITCRASQSIGSWLAWYQQKPGKAPKLLIYGVSTLHSGVPSRFSGSGSGTDFTLTISSLQPEDFATYYCQQSYSTPPTFGQGTKLEIKR |
